Target: T1, CD3ε homodimer protein (human, UniProt P07766 23-126, limits assumed, sulfo-tag or biotin label in the ECL assays; amine-coupled to the chip in SPR)
T1 construct: also called human CD3ε homodimer protein; CD3 (CD3ε)
Assay: SPR Biacore T200; CD3ε homodimer on CM4 chip;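 note: Single-residue variant antibodies injected as analyte over CD3ε homodimer immobilized by amine coupling, run at 25 °C in HBS-EP+ buffer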
Protocol: An appropriate amount of CD3ε homodimer protein was immobilized onto Sensor chip CM4 (GE Healthcare Japan Corp.) by the amine coupling method. Then, the antibody having an appropriate concentration was injected thereto as an analyte and allowed to interact with the CD3ε homodimer protein on the sensor chip. Then, the sensor chip was regenerated by the injection of 10 mmol/L glycine-HCl (pH 1.5). The assay was conducted at 25° C., and HBS-EP+ (GE Healthcare Japan Corp.) was used as a running buffer. […] Each parameter was calculated using Biacore T200 Evaluation Software (GE Healthcare Japan Corp.).

T1 sequence (P07766 23-126 limits assumed): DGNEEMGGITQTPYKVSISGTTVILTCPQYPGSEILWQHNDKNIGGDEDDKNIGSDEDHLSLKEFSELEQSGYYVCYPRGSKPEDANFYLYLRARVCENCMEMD

Binder | ratio of amounts bound Z=Y/X (altered form / CE115HA000)
CE115HA000 N31D one-arm antibody (antibody, human IgG1, kappa, L234A L235A, N297A, name in Kabat numbering) heavy: QVQLVESGGGVVQPGRSLRLSCAASGFTFSDAWMHWVRQAPGKGLEWVAQIKAKSNNYATYYAESVKGRFTISRDDSKNSLYLQMNSLKTEDTAVYYCRYVHYGAYYGVDAWGQGTTVTVSSASTKGPSVFPLAPSSKSTSGGTAALGCLVKDYFPEPVTVSWNSGALTSGVHTFPAVLQSSGLYSLSSVVTVPSSSLGTQTYICNVNHKPSNTKVDKKVEPKSCDKTHTCPPCPAPEAAGGPSVFLFPPKPKDTLMISRTPEVTCVVVDVSHEDPEVKFNWYVDGVEVHNAKTKPREEQYASTYRVVSVLTVLHQDWLNGKEYKCKVSNKALPAPIEKTISKAKGQPREPQVYTLPPSRCELTKNQVSLSCAVKGFYPSDIAVEWESNGQPENNYKTTPPVLDSDGSFFLVSKLTVDKSRWQQGNVFSCSVMHEALHNHYTQKSLSLSPDYKDDDDK EPKSSDKTHTCPPCPAPELLGGPSVFLFPPKPKDTLMISRTPEVTCVVVDVSHEDPEVKFNWYVDGVEVHNAKTKPREEQYNSTYRVVSVLTVLHQDWLNGKEYKCKVSNKALPAPIEKTISKAKGQPREPQVCTLPPSRDELTKNQVSLWCLVKGFYPSDIAVEWESNGQPENNYKTTPPVLDSDGSFFLYSKLTVDKSRWQQGNVFSCSVMHEALHNRYTQKSLSLSP light: DIVMTQSPLSLPVTPGEPASISCRSSQSLVHSNRNTYLHWYQQKPGQAPRLLIYKVSNRFSGVPDRFSGSGSGTDFTLKISRVEAEDVGVYYCGQGTQVPYTFGQGTKLEIKRTVAAPSVFIFPPSDEQLKSGTASVVCLLNNFYPREAKVQWKVDNALQSGNSQESVTEQDSKDSTYSLSSTLTLSKADYEKHKVYACEVTHQGLSSPVTKSFNRGEC | 0.37
CE115HA000 N31H one-arm antibody (antibody, human IgG1, kappa, L234A L235A, N297A, name in Kabat numbering) heavy: QVQLVESGGGVVQPGRSLRLSCAASGFTFSHAWMHWVRQAPGKGLEWVAQIKAKSNNYATYYAESVKGRFTISRDDSKNSLYLQMNSLKTEDTAVYYCRYVHYGAYYGVDAWGQGTTVTVSSASTKGPSVFPLAPSSKSTSGGTAALGCLVKDYFPEPVTVSWNSGALTSGVHTFPAVLQSSGLYSLSSVVTVPSSSLGTQTYICNVNHKPSNTKVDKKVEPKSCDKTHTCPPCPAPEAAGGPSVFLFPPKPKDTLMISRTPEVTCVVVDVSHEDPEVKFNWYVDGVEVHNAKTKPREEQYASTYRVVSVLTVLHQDWLNGKEYKCKVSNKALPAPIEKTISKAKGQPREPQVYTLPPSRCELTKNQVSLSCAVKGFYPSDIAVEWESNGQPENNYKTTPPVLDSDGSFFLVSKLTVDKSRWQQGNVFSCSVMHEALHNHYTQKSLSLSPDYKDDDDK EPKSSDKTHTCPPCPAPELLGGPSVFLFPPKPKDTLMISRTPEVTCVVVDVSHEDPEVKFNWYVDGVEVHNAKTKPREEQYNSTYRVVSVLTVLHQDWLNGKEYKCKVSNKALPAPIEKTISKAKGQPREPQVCTLPPSRDELTKNQVSLWCLVKGFYPSDIAVEWESNGQPENNYKTTPPVLDSDGSFFLYSKLTVDKSRWQQGNVFSCSVMHEALHNRYTQKSLSLSP light: DIVMTQSPLSLPVTPGEPASISCRSSQSLVHSNRNTYLHWYQQKPGQAPRLLIYKVSNRFSGVPDRFSGSGSGTDFTLKISRVEAEDVGVYYCGQGTQVPYTFGQGTKLEIKRTVAAPSVFIFPPSDEQLKSGTASVVCLLNNFYPREAKVQWKVDNALQSGNSQESVTEQDSKDSTYSLSSTLTLSKADYEKHKVYACEVTHQGLSSPVTKSFNRGEC | 0.68
CE115HA000 N31G one-arm antibody (antibody, human IgG1, kappa, L234A L235A, N297A, name in Kabat numbering) heavy: QVQLVESGGGVVQPGRSLRLSCAASGFTFSGAWMHWVRQAPGKGLEWVAQIKAKSNNYATYYAESVKGRFTISRDDSKNSLYLQMNSLKTEDTAVYYCRYVHYGAYYGVDAWGQGTTVTVSSASTKGPSVFPLAPSSKSTSGGTAALGCLVKDYFPEPVTVSWNSGALTSGVHTFPAVLQSSGLYSLSSVVTVPSSSLGTQTYICNVNHKPSNTKVDKKVEPKSCDKTHTCPPCPAPEAAGGPSVFLFPPKPKDTLMISRTPEVTCVVVDVSHEDPEVKFNWYVDGVEVHNAKTKPREEQYASTYRVVSVLTVLHQDWLNGKEYKCKVSNKALPAPIEKTISKAKGQPREPQVYTLPPSRCELTKNQVSLSCAVKGFYPSDIAVEWESNGQPENNYKTTPPVLDSDGSFFLVSKLTVDKSRWQQGNVFSCSVMHEALHNHYTQKSLSLSPDYKDDDDK EPKSSDKTHTCPPCPAPELLGGPSVFLFPPKPKDTLMISRTPEVTCVVVDVSHEDPEVKFNWYVDGVEVHNAKTKPREEQYNSTYRVVSVLTVLHQDWLNGKEYKCKVSNKALPAPIEKTISKAKGQPREPQVCTLPPSRDELTKNQVSLWCLVKGFYPSDIAVEWESNGQPENNYKTTPPVLDSDGSFFLYSKLTVDKSRWQQGNVFSCSVMHEALHNRYTQKSLSLSP light: DIVMTQSPLSLPVTPGEPASISCRSSQSLVHSNRNTYLHWYQQKPGQAPRLLIYKVSNRFSGVPDRFSGSGSGTDFTLKISRVEAEDVGVYYCGQGTQVPYTFGQGTKLEIKRTVAAPSVFIFPPSDEQLKSGTASVVCLLNNFYPREAKVQWKVDNALQSGNSQESVTEQDSKDSTYSLSSTLTLSKADYEKHKVYACEVTHQGLSSPVTKSFNRGEC | 0.39
CE115HA000 N31F one-arm antibody (antibody, human IgG1, kappa, L234A L235A, N297A, name in Kabat numbering) heavy: QVQLVESGGGVVQPGRSLRLSCAASGFTFSFAWMHWVRQAPGKGLEWVAQIKAKSNNYATYYAESVKGRFTISRDDSKNSLYLQMNSLKTEDTAVYYCRYVHYGAYYGVDAWGQGTTVTVSSASTKGPSVFPLAPSSKSTSGGTAALGCLVKDYFPEPVTVSWNSGALTSGVHTFPAVLQSSGLYSLSSVVTVPSSSLGTQTYICNVNHKPSNTKVDKKVEPKSCDKTHTCPPCPAPEAAGGPSVFLFPPKPKDTLMISRTPEVTCVVVDVSHEDPEVKFNWYVDGVEVHNAKTKPREEQYASTYRVVSVLTVLHQDWLNGKEYKCKVSNKALPAPIEKTISKAKGQPREPQVYTLPPSRCELTKNQVSLSCAVKGFYPSDIAVEWESNGQPENNYKTTPPVLDSDGSFFLVSKLTVDKSRWQQGNVFSCSVMHEALHNHYTQKSLSLSPDYKDDDDK EPKSSDKTHTCPPCPAPELLGGPSVFLFPPKPKDTLMISRTPEVTCVVVDVSHEDPEVKFNWYVDGVEVHNAKTKPREEQYNSTYRVVSVLTVLHQDWLNGKEYKCKVSNKALPAPIEKTISKAKGQPREPQVCTLPPSRDELTKNQVSLWCLVKGFYPSDIAVEWESNGQPENNYKTTPPVLDSDGSFFLYSKLTVDKSRWQQGNVFSCSVMHEALHNRYTQKSLSLSP light: DIVMTQSPLSLPVTPGEPASISCRSSQSLVHSNRNTYLHWYQQKPGQAPRLLIYKVSNRFSGVPDRFSGSGSGTDFTLKISRVEAEDVGVYYCGQGTQVPYTFGQGTKLEIKRTVAAPSVFIFPPSDEQLKSGTASVVCLLNNFYPREAKVQWKVDNALQSGNSQESVTEQDSKDSTYSLSSTLTLSKADYEKHKVYACEVTHQGLSSPVTKSFNRGEC | 0.62
CE115HA000 N31K one-arm antibody (antibody, human IgG1, kappa, L234A L235A, N297A, name in Kabat numbering) heavy: QVQLVESGGGVVQPGRSLRLSCAASGFTFSKAWMHWVRQAPGKGLEWVAQIKAKSNNYATYYAESVKGRFTISRDDSKNSLYLQMNSLKTEDTAVYYCRYVHYGAYYGVDAWGQGTTVTVSSASTKGPSVFPLAPSSKSTSGGTAALGCLVKDYFPEPVTVSWNSGALTSGVHTFPAVLQSSGLYSLSSVVTVPSSSLGTQTYICNVNHKPSNTKVDKKVEPKSCDKTHTCPPCPAPEAAGGPSVFLFPPKPKDTLMISRTPEVTCVVVDVSHEDPEVKFNWYVDGVEVHNAKTKPREEQYASTYRVVSVLTVLHQDWLNGKEYKCKVSNKALPAPIEKTISKAKGQPREPQVYTLPPSRCELTKNQVSLSCAVKGFYPSDIAVEWESNGQPENNYKTTPPVLDSDGSFFLVSKLTVDKSRWQQGNVFSCSVMHEALHNHYTQKSLSLSPDYKDDDDK EPKSSDKTHTCPPCPAPELLGGPSVFLFPPKPKDTLMISRTPEVTCVVVDVSHEDPEVKFNWYVDGVEVHNAKTKPREEQYNSTYRVVSVLTVLHQDWLNGKEYKCKVSNKALPAPIEKTISKAKGQPREPQVCTLPPSRDELTKNQVSLWCLVKGFYPSDIAVEWESNGQPENNYKTTPPVLDSDGSFFLYSKLTVDKSRWQQGNVFSCSVMHEALHNRYTQKSLSLSP light: DIVMTQSPLSLPVTPGEPASISCRSSQSLVHSNRNTYLHWYQQKPGQAPRLLIYKVSNRFSGVPDRFSGSGSGTDFTLKISRVEAEDVGVYYCGQGTQVPYTFGQGTKLEIKRTVAAPSVFIFPPSDEQLKSGTASVVCLLNNFYPREAKVQWKVDNALQSGNSQESVTEQDSKDSTYSLSSTLTLSKADYEKHKVYACEVTHQGLSSPVTKSFNRGEC | 1.01
CE115HA000 N31I one-arm antibody (antibody, human IgG1, kappa, L234A L235A, N297A, name in Kabat numbering) heavy: QVQLVESGGGVVQPGRSLRLSCAASGFTFSIAWMHWVRQAPGKGLEWVAQIKAKSNNYATYYAESVKGRFTISRDDSKNSLYLQMNSLKTEDTAVYYCRYVHYGAYYGVDAWGQGTTVTVSSASTKGPSVFPLAPSSKSTSGGTAALGCLVKDYFPEPVTVSWNSGALTSGVHTFPAVLQSSGLYSLSSVVTVPSSSLGTQTYICNVNHKPSNTKVDKKVEPKSCDKTHTCPPCPAPEAAGGPSVFLFPPKPKDTLMISRTPEVTCVVVDVSHEDPEVKFNWYVDGVEVHNAKTKPREEQYASTYRVVSVLTVLHQDWLNGKEYKCKVSNKALPAPIEKTISKAKGQPREPQVYTLPPSRCELTKNQVSLSCAVKGFYPSDIAVEWESNGQPENNYKTTPPVLDSDGSFFLVSKLTVDKSRWQQGNVFSCSVMHEALHNHYTQKSLSLSPDYKDDDDK EPKSSDKTHTCPPCPAPELLGGPSVFLFPPKPKDTLMISRTPEVTCVVVDVSHEDPEVKFNWYVDGVEVHNAKTKPREEQYNSTYRVVSVLTVLHQDWLNGKEYKCKVSNKALPAPIEKTISKAKGQPREPQVCTLPPSRDELTKNQVSLWCLVKGFYPSDIAVEWESNGQPENNYKTTPPVLDSDGSFFLYSKLTVDKSRWQQGNVFSCSVMHEALHNRYTQKSLSLSP light: DIVMTQSPLSLPVTPGEPASISCRSSQSLVHSNRNTYLHWYQQKPGQAPRLLIYKVSNRFSGVPDRFSGSGSGTDFTLKISRVEAEDVGVYYCGQGTQVPYTFGQGTKLEIKRTVAAPSVFIFPPSDEQLKSGTASVVCLLNNFYPREAKVQWKVDNALQSGNSQESVTEQDSKDSTYSLSSTLTLSKADYEKHKVYACEVTHQGLSSPVTKSFNRGEC | 0.81

Source: US20260049138A1 (Chugai, published 2026)
